In publication PMC10165364, “Pathological variants in TOP3A cause distinct disorders of mitochondrial and nuclear genome stability”:

Tests used:
Conditions in all cases: protein: recombinant; tags: N-terminal TEV-cleavable 6xHis, cleaved; label: 5' 32P; single strand
TOP3A Leu37Val = target: T1, TOP3A Leu37Val (Homo sapiens, UniProt Q13472 16-934, L37V); experiment: EMSA; up to 250 fmol protein; 25 mM HEPES pH 7.5, 70 mM NaCl, 100 ug/ml BSA, 1 mM DTT, 10% glycerol; 10 fmol oligo, 0-250 fmol TOP3A in 20 ul; 37 C 15 min, then ice; 8% native PAGE in 0.5x TBE at 4 C
T1 sequence: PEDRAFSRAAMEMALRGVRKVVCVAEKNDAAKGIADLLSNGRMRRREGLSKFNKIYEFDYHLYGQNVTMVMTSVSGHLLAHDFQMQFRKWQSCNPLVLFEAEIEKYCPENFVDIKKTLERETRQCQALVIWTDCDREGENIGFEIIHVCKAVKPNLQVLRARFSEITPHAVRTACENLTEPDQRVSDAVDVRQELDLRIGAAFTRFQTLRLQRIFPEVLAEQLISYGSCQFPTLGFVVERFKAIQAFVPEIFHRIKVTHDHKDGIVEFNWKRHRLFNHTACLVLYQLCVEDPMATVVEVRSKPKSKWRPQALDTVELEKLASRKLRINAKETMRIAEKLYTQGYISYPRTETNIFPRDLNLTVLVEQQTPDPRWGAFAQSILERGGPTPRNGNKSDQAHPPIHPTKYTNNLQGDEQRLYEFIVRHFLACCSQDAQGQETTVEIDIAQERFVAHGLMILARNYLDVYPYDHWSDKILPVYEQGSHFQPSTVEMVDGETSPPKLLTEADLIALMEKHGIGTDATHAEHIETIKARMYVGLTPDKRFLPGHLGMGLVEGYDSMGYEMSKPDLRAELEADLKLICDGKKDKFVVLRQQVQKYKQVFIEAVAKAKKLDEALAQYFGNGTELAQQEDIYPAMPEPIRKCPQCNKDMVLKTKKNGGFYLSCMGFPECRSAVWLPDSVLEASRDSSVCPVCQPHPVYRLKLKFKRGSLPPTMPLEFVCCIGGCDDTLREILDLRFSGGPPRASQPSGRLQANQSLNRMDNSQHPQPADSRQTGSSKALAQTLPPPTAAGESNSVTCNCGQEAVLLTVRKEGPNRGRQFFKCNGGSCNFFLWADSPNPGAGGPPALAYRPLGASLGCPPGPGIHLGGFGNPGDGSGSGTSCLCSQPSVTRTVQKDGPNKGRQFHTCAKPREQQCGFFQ

TOP3A Met575Val = target: T2, TOP3A Met575Val (Homo sapiens, UniProt Q13472 16-934, M575V); experiment: as above
T2 sequence: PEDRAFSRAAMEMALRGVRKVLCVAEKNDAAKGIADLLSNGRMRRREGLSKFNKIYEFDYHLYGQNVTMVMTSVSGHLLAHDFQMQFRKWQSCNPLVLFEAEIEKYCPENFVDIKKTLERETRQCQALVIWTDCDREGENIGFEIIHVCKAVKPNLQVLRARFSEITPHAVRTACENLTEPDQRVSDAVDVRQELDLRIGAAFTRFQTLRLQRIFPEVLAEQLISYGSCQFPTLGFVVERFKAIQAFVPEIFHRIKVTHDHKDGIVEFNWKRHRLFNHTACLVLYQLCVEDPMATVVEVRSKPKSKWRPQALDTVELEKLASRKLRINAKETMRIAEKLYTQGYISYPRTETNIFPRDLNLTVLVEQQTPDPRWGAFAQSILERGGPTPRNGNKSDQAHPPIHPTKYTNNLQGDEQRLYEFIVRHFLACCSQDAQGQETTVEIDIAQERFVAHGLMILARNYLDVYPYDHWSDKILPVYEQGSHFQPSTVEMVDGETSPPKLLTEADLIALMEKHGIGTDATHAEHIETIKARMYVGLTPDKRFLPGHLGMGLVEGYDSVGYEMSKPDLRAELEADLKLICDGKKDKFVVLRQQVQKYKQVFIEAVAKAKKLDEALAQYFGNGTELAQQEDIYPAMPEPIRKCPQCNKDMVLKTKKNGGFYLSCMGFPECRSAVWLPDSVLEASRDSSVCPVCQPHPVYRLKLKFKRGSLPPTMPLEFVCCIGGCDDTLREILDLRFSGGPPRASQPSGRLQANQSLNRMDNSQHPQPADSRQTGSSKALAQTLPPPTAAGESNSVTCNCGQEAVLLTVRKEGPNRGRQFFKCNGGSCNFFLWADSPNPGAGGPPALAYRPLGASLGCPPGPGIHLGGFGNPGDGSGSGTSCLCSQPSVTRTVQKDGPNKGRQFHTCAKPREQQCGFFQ

TOP3A Ser810* = target: T3, TOP3A Ser810* (Homo sapiens, UniProt Q13472 16-809); experiment: EMSA; comparable to WT; 25 mM HEPES pH 7.5, 70 mM NaCl, 100 ug/ml BSA, 1 mM DTT, 10% glycerol; 10 fmol oligo, 0-250 fmol TOP3A in 20 ul; 37 C 15 min, then ice; 8% native PAGE in 0.5x TBE at 4 C
T3 sequence: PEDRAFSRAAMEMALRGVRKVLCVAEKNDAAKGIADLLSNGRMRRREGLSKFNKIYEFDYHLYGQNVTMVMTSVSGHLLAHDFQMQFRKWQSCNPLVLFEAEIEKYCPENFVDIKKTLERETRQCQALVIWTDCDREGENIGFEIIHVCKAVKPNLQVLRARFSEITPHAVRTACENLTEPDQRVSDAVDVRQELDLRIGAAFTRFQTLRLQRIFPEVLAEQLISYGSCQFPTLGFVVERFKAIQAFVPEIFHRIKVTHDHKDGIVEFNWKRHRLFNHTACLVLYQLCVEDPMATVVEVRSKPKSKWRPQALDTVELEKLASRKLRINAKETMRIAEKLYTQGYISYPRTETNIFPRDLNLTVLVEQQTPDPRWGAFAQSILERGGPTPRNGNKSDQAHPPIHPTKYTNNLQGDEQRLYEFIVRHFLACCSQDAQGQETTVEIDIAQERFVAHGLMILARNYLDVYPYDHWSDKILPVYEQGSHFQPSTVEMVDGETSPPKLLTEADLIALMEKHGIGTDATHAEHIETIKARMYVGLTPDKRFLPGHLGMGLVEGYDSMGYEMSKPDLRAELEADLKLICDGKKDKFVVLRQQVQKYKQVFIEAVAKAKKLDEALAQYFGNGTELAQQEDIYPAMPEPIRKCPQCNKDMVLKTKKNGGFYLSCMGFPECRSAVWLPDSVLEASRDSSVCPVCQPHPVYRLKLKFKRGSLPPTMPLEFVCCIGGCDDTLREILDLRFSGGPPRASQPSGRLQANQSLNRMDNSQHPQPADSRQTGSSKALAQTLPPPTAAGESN

B1: EMSA substrate 80-mer (ssDNA)
DNA: ACCACATTAACAACATAAAACCCTCATTCACACGAGAAAACACCCTCATGTTCATACACCTATCCCCCATTCTCCTCCTA
- binding result (TOP3A Leu37Val): no binding
- binding result (TOP3A Met575Val): no binding
- binding result (TOP3A Ser810*): binds
